Experiments:
[1] = system: HeLa cells; assay: MTT cell viability/growth inhibition, HeLa; format: cell-based, human; settings: HeLa CARP-1 (Δ600–650) vs WT CARP-1-expressing counterparts, mean of three experiments
Method: (§1) Routine maintenance and culture of MDA-MB-468 (lacking estrogen receptor; ER and having mutant p53) human triple-negative breast cancer (TNBC) cells, human cervical cancer HeLa, human kidney cancer UOK 262, non-small-cell lung cancer H1975, and HCC827 cells was carried out essentially as described previously. Generation and characterization of MDA-MB-468 cells expressing reduced CARP-1 was described previously. The stable sublines were generated by transfecting the MDA-MB-468 and Hela cells with the pcDNA3 vector, pcDNA3-CARP-1 wild-type (WT)-myc-His clone 6.1.2, pcDNA3-CARP-1(Δ600–650)-myc-His, pcDNA3-EGFP, pcDNA3-EGFP-H2AX (1–35), or pcDNA3-EGFP-CARP-1 (636–650) plasmids, followed by selection in the presence of 800 μg/mL neomycin using described methods. The cell lysates from wild-type, untransfected cells, neomycin-resistant pools, or individual sublines were then subjected to MTT-based viability, confocal, immunoprecipitation (IP), and Western blot (WB) analyses as below.
(§2) The cell growth inhibition was assessed using an MTT assay following the established protocols described by us previously.
(§3) Here, we utilized human TNBC MDA-MB-468 and human cervical cancer HeLa cells to conduct an MTT-based dose-response analysis using Adriamycin and CFM compounds. […] Since Adriamycin, CFM-4, and CFM-4.16 have molecular masses of 543.3, 404.9, and 440.3, respectively, we chose to use an equimolar dose of each compound in the MTT assays. […] Prior reports established that phosphorylation of H2AX at serine 139 (γ-H2AX) is involved in DNA damage repair and apoptotic signaling by ATM/ATR and JNKs, respectively. Next, the MDA-MB-468, HeLa, and the kidney cancer UOK 262 cells were treated with a 10 μM dose of the CFM-4.16 or Adriamycin for various time periods. The cell lysates from the control, untreated, and treated cells were analyzed by WB for expression of CARP-1, phospho-JNK1/2, phospho-H2AX, and poly ADP ribose polymerase (PARP) proteins. […] The H2AX activation is also indicative of DNA damage and involves pro-apoptotic JNKs. Our data in Figure 1C and Figure S1B,C (Supplementary Materials) also show activation of JNKs; however, a robust JNK activation is co-incident with H2AX phosphorylation following treatments with Adriamycin or CFM-4.16.
Figure 8 Ectopic expression of TAT-CARP-1 (636–650) peptide results in enhanced viabilities of Adriamycin-treated cells. MDA-MB-468 (A) or HeLa (B) cells were pre-incubated with 300 μg/mL indicated peptides for 72 h, followed by treatments with the noted dose and time of Adriamycin. Determination of viable/live cells was carried out using an MTT assay as described in Section 2. The bar charts in panels A and B represent means of three and two independent experiments, respectively; bars, SE. (C) Indicated cells were either pre-incubated with 6 μg/mL indicated peptides for 72 h or not (Control), followed by treatments with Adriamycin as noted. Cells were then processed for immunofluorescence staining for TAT-CARP-1 peptide (red), γH2AX (green), and DAPI (blue) as detailed in Section 2 and Figure S3 (Supplementary Materials). Insets in C show enlarged areas of respective photomicrographs to indicate presence of TAT-CARP-1 peptide and γH2AX in respective columns. The insets in the top and middle rows of the merge column show co-localization of TAT-CARP-1 peptide, and γH2AX (magnification: 250×).
Figure S7. Disruption of H2AX interaction with CARP-1 results in enhanced viabilities of CFM-4, CFM-4.16, or Adriamycin-treated cells in part due to reduced γH2AX and apoptosis. (A,B,C) Indicated HeLa cell lines were treated with DMSO (Control), noted dose and time of Adriamycin, CFM-4, or CFM-4.16 compounds. Determination of viable/live cells was carried out by MTT assay as in methods. The columns in bar charts in panels A, B, C represent means of three independent […]
experiments; bars, SE. […]

[2] = system: MDA-MB-468 cells; assay: MTT cell viability/growth inhibition, MDA-MB-468; format: cell-based, human; settings: MDA-MB-468 CARP-1 (Δ600–650) vs WT CARP-1-expressing counterparts, MTT, mean of three experiments
Method: as §1, §2, §3
Figure 7 Disruption of H2AX interaction with CARP-1 results in enhanced viabilities of CFM-4-, CFM-4.16-, or Adriamycin-treated cells in part due to reduced apoptosis. (A,C,D) Indicated MDA-MB-468 cell lines were treated with DMSO (Control), or with the noted dose and time of Adriamycin, CFM-4, or CFM-4.16 compounds. Determination of viable/live cells was carried out by MTT assay as described in Section 2. (B,E,F) Cell lysates derived from vehicle DMSO (Control), or CFM-4-, CFM-4.16-, or Adriamycin-treated cells were added to the wells that had immobilized fluorogenic substrates of noted caspases. The fluorescence released from the activated caspase-dependent cleavage of respective substrate was detected by a plate reader at the excitation and emission wavelengths of 380 nm and 460 nm, respectively, as detailed in Section 2. The columns in bar charts in panels A, C, D and B, […] represent means of three and two independent experiments, respectively; bars, SE. For panels C and D, * p < 0.05, **p < 0.01 and *** p ≤ 0.001 relative to the respective EGFP vector subline. For panels E and F, *** p ≤ 0.05 relative to the respective EGFP vector subline.
Figure 8 Ectopic expression of TAT-CARP-1 (636–650) peptide results in enhanced viabilities of Adriamycin-treated cells. MDA-MB-468 (A) or HeLa (B) cells were pre-incubated with 300 μg/mL indicated peptides for 72 h, followed by treatments with the noted dose and time of Adriamycin. Determination of viable/live cells was carried out using an MTT assay as described in Section 2. […]

[3] = target: CARP-1 (636–650) peptide, biotin-labelled (human) (UniProt Q8IX12); assay: SPR; SPRi (PlexArray HT); CARP-1 (636–650) peptide printed on bare gold-coated PlexArray Nanocapture chip, blocked with 5% non-fat milk; PBST pH 7.4, 25 °C; global fit to a 1:1 interaction model
[4] = system: Gst-H2AX; assay: Gst-pulldown with Gst-H2AX; format: binding, human; settings: E. coli-expressed, 4 °C, 2 h, WB anti-HA, Figure 5A
Method: Logarithmically growing cells were either untreated or treated with different agents for various time periods. The cells were lysed to prepare protein extracts. IP was carried out by incubating approximately 1 mg of the protein lysate with appropriate antibodies. The immunoprecipitates were then analyzed by SDS-PAGE, followed by WB with respective, interacting protein. For Gst-pulldown, Gst-H2AX or various His-TAT-HA-tagged CARP-1 peptides were generated in Escherichia coli (E. coli) BL21 cells essentially as described by us previously. Briefly, the competent E. coli BL-21 (DE3) pLysS cells were transformed separately with various recombinant pGEX-4T-1 or pTAT-HA constructs. The transformed cells were then subjected to selection by combined presence of ampicillin and chloramphenicol; various isolates for each transformation were obtained and bacterial lysates were characterized for expression of fusion peptides. Cells from each isolate were grown in 4 mL of LB medium containing ampicillin only until the optical density (OD)600 reached 0.4–0.8. Expression of fusion peptides was induced over 2–4 h incubation periods after Isopropyl β-D-1-thiogalactopyranoside (IPTG) addition. The cells were harvested, and pellets were stored at −80 °C overnight. […]

In the case of O=C1N(Cc2ccccc2Cl)c2ccccc2C12NN=C(c1ccccc1)S2 (stereo not drawn) [CFM-4], the “growth inhibition of CARP-1 (Δ600–650)-expressing cells” value [1] is reported as “resistant to inhibition by CFM-4 or ADR” and the “growth inhibition of CARP-1 (Δ600–650)-expressing cells” value [2] is reported as “resistant to inhibition by CFM-4 or ADR”.

“H2AX (1–35) peptide (from UniProt P16104 1-35)” showed a Kd [3] of 126 nM, a koff [3] of 0.000292 s⁻¹ and a kon [3] of 2320 M⁻¹ s⁻¹.

B1: His-TAT-HA-CARP-1 (552–654): E. coli-expressed His-TAT-HA-tagged CARP-1 peptide (peptide)
chain: RPEETHKGRTVPAHVETVVLFFPDVWHCLPTRSEWETLSRGYKQQLVEKLQGERKEADGEQDEEEKDDGEAKEISTPTHWSKLDPKTMKVNDLRKELESRALS
modifications: left off: His, end not stated, kept | TAT, end not stated, kept | HA, end not stated, kept
notes: E. coli-expressed His-TAT-HA-tagged CARP-1 peptide
For B1, the “binding with Gst-H2AX protein” value [4] was “bound with Gst-H2AX protein”.

Source: paper PMC6406907, “A H2AX–CARP-1 Interaction Regulates Apoptosis Signaling Following DNA Damage” (Cancers, 2019)
